Columns and labels:
Assay in all cases: cell-based or functional assay
[1] = target: wild-type DENV4 E glycoprotein (Parent_WT_DENV4), on virus particles (Dengue virus 4) (UniProt P09866)
[2] = target: DV4-EDIII-DV2 chimeric E glycoprotein (DENV4 backbone with DENV2 envelope domain III), on virus particles (Dengue virus 4/2)
[3] = target: wild-type DENV2 E glycoprotein (Parent_WT_DENV2), on virus particles (Dengue virus 2) (UniProt P07564)

human monoclonal antibody 2D22
FRNT50 (Vero-81 focus reduction neutralization test) [1]: > 5 ng/µL | FRNT50 (Vero-81 focus reduction neutralization test) [2]: 0.01 ng/µL | FRNT50 (Vero-81 focus reduction neutralization test) [3]: 0.1 ng/µL
